Measured values reported in the Human Domainome abundance scans (Beltran et al. 2025).

B1: Ankyrin repeat and SAM domain-containing protein 6, residues 774 to 836; numbered along this chain, Q68DC2 (parent)
chain: DEDELTGILKKLSLEKYQPIFEEQEVDMEAFLTLTDGDLKELGIKTDGSRQQILAAISELNAG
B2: Mineralocorticoid receptor, residues 600 to 675; numbered along this chain, P08235 (parent)
chain: SKICLVCGDEASGCHYGVVTCGSCKVFFKRAVEGQHNYLCAGRNDCIIDKIRRKNCPACRLQKCLQAGMNLGARKS

Variants of: B1
Test: abundance fitness (aPCA) (normalised: wild type 0, dead -1); higher = more abundant; growth selection in yeast, the domain comes from the species named
Settings: Homo sapiens

Abundance fitness of substitutions, site by site:
G7: F -0.027, K 0.048, E -0.016, D 0.039, H 0.185, A 0.042, C -0.072, L 0.102, I 0.129
D3: M 0.209, E -0.078, P -0.177, H 0.2, V -0.267, Q 0.08, K 0.162, R -0.064, Y 0.116, T -0.118, F 0.084, G -0.472, L 0.133, I -0.082, S 0.054, N -0.074, A -0.157, C 0.057
E4: N -0.838, S -0.148, R -0.602, P -0.619, H -0.31, C -0.016, G -0.254, Y -0.511, Q -0.619, D -0.334, L -0.326, W -0.582, I 0.179, A -0.527, K -0.452, T -0.201, V -0.215, M -0.27, F -0.05
T6: V -0.353, A 0.146, I -0.436
L5: H -0.839, G -0.969, S -0.84, A -0.864, D -1.01, M -0.116, R -0.71, P -0.559, E -1.07, I -0.05, Q -0.639, K -0.895, Y -0.504, V -0.18
D1: S 0.045, T 0.007, G -0.039, Y 0.031, N 0.113, M 0.351, A -0.023, W -0.363, F -0.312, L 0.223, E -0.103, I 0.158, Q 0.002
E2: N 0.047, P 0.112, Q 0.11, F 0.287, G -0.158, M 0.565, W 0.143, R 0.081, V -0.234, A -0.029, L 0.288, C 0.142, H 0.248, Y 0.063, T 0.361

Variants of: B2
Test: as above
Settings: Homo sapiens

Abundance fitness, by site and new letter:
Q62: G -0.028, R -0.045, W -0.059, S -0.049, N 0.033, T -0.052, M 0.026, F -0.16, K 0.046, H 0.006, L 0.012, P -0.887, C -0.002, A -0.013, V -0.022, Y -0.121, E -0.054
G68: Q -0.153, L -0.484, D -0.164, V -0.518, A -0.382, H -0.381, W -0.447, M -0.211, N -0.152, T -0.423, K -0.217, I -0.266, F -0.77, E -0.146, S -0.222, P -0.451, R -0.172
L61: G -0.566, A -0.315, S -0.471, N -0.338, V -0.101, R -0.205, E -0.214, K 0.021, Q -0.005, Y 0.04, D -0.774, I -0.155, T -0.361, W -0.004, F -0.031, H -0.233, C -0.843
S76: R -0.116, V -0.173, Q -0.096, Y -0.075, I -0.198, G -0.076, E -0.044, T 0.01, N -0.071, P 0.007, K -0.654, W 0.122, D -0.031, M -0.084, F -0.119, H -0.051, L -0.012, C -0.128
Q66: G -0.044, P -0.697, I -0.029, L -0.112, C -0.023, T -0.051, W -0.029, V -0.039, M -0.065, Y -0.094, D 0.018, R -0.014, E 0.081, H -0.045, F -0.019, A 0.011
K63: A -0.075, S -0.104, Q -0.134, N -0.058, T -0.024, D -0.318, E -0.16, M -0.074, R -0.082, G -0.104, H -0.099, I -0.101, P -0.754, Y -0.137, L -0.092, W -0.204, F -0.192
L65: Y -0.001, M -0.052, N -0.058, D -0.051, R -0.055, V -0.087, E 0.031, Q 0.018, F -0.01, A -0.05, T -0.037, G -0.051, W -0.035, K -0.107, H 0.032
M69: T -0.353, K -0.261, C -0.128, G -0.235, N -0.523, H -0.617, F -0.239, Y -0.493, S -0.341, Q -0.262, D -0.293, E -0.307, A -0.058, W -0.427, R -0.421
C64: D -0.716, Q -0.315, I -0.415, N -0.886, E -0.851, Y -0.452, T -0.35, V -0.587, A -0.028, P -0.869, G -0.02, K -0.885, W -0.523, H -0.821, L -0.351, M -0.017, F -0.466, S -0.113
K75: Q 0.05, T 0.014, M -0.025, A 0.059, D -0.057, G -0.024, V 0.034, I -0.213, W -0.007, F -0.167, P 0.011, Y -0.051, L -0.056, C -0.038, N -0.092, S 0.065, H 0.077, E 0.055
R74: I -0.042, A 0.027, L -0.061, E 0.056, C 0.005, D -0.003, F -0.088, W 0, P -0.03, S -0.001, Q -0.079, Y -0.031, K 0.02, V 0.026, M -0.015, G -0.022, T 0.138, N -0.011
C59: Q -0.957, T -0.654, R -0.801, S -0.762, P -0.615, W -0.855, Y -0.995
N70: H -0.031, G -0.082, T -0.04, K 0.058, W -0.087, P -0.021, E -0.035, C -0.154, M -0.044, Y -0.009, Q -0.019, I -0.02, F -0.07, S 0.034, V -0.011, R -0.014, L -0.089, D 0.014
A67: L -0.002, C -0.03, W -0.055, Q -0.17, F -0.121, K -0.144, N -0.084, Y -0.264, D -0.653, G -0.076, E 0.092, R -0.053, M 0.055, H -0.026, I -0.076
G72: V 0.012, W -0.124, D 0.029, H 0.032, S -0.009, C 0, P 0.011, Y -0.074, T -0.115, F -0.134, M -0.042, E -0.036, Q 0.053, L -0.021, I -0.02, R -0.065, K -0.048
